B1: chimeric anti-PD-L1 antibody 9A9 (antibody, human IgG1, V domains shown)
VH: QSVEESGGRLVTPGTPLTLTCTVSGIDLSGYWMSWVRQAPGKGLEYIGIVDNDGSAYYASWVNGRFTISKTSTTVDLKITSPTTEDTATYFCARQSGDWTFDLWGPGTLVTVSS
VL: DVVMTQTPASVSEPVGGTVTIKCQASQSIGRWLSWYQQKPGQPPKLLIYQASKLASGVPSRFSGSGSGTEFTLTISDLECADAATYYCQNNYDIIAYGNAFGGGTEVVVK
notes: also called c9A9; chimeric 9A9
B2: chimeric anti-PD-L1 antibody 15E9 (antibody, human IgG1, V domains shown)
VH: QSVEESGGRLVTPGTPLTLTCTVSGFDISNYWMSWVRQAPGKGLEYIGIISTGGNTWYASWVKGRFTISKTSTTVDLKMTSLTTEDTATYFCVRVVIYGGTTSSFNLWGPGTLVTVSS
VL: QVLTQTASPVSAAVGGTVTINCQSSQNVYNKIRLSWFQQKSGQPPKELIYAASSLASGVPSRFKGSGSGTEFTLTISDLECDDAATYYCQGGYSGPIYAFGGGTEVVVK
B3: chimeric anti-PD-L1 antibody 11B11 (antibody, human IgG1, V domains shown)
VH: QSVEESGGRLVTPGGTLTLTCTASGFSLSNYTMAWVRQAAGKGLEWIGYINTGGSPYYASWAKGRFTISRSSTTVDLKMTSLTTEDTATYFCARNVDGAWNYLNLWGPGTLVTVSS
VL: AYDMTQTPASVEVVVGGTVTIKCQASETINTYLSWYQQKPGQRPRLLIYAASNLASGVPSRFSGSGSGTEFTLTISGVQCADAATYYCQQGINSNVGNTFGGGTEVVVK
B4: chimeric anti-PD-L1 antibody 51D5 (antibody, human IgG1, V domains shown)
VH: QSVEESGGRLVTPGTPLTLTCIVSGFSLSSYWMSWVRRAPGKGLEWIGYINGGSGNPYYASWAKGRFTISKTSTTVDLKITSPTTEDTATYFCARGGESDDYVYGRYGLDPWGPGTLVTVSS
VL: AYDMTQTPASVSEPVGGTVTIKCQASQSISSWLSWYQQKPGQPPKLLIYDASKLASGVPSRFSGSGSGTQFTLTISDLECDDAATYYCQQDYSSYNVDNTFGGGTEVVVK
notes: also called chimeric 51D5; c51D5

What was measured:
human PD-L1 on cells [1] = biological target: T1, human PD-L1 on cells (human, UniProt Q9NZQ7 19-290); assay: flow cytometry on HEK-PD-L1 cells; PE anti-human Fc, MFI
T1 construct: whole, on cells; also called HEK-PD-L1 cells; PD-L1-expressing HEK 293 cells

mouse PD-L1 = mouse PD-L1 (mouse, UniProt Q9EP73 19-239, limits assumed); assay: assay not described
human PD-L1 on cells [2] = biological target: T1, human PD-L1 on cells; assay: flow cytometry on activated CD4 T cells, saturation fit on a linear axis
human PD-L1 on cells [3] = biological target: T1, human PD-L1 on cells; assay: flow cytometry on activated CD4 T cells, MFI
human PD-L1 on cells [4] = biological target: T1, human PD-L1 on cells; assay: flow cytometry on monocyte-derived dendritic cells, saturation fit on a linear axis
human PD-L1 on cells [5] = biological target: T1, human PD-L1 on cells; assay: flow cytometry on HEK PD-L1 cells, saturation fit on a linear axis
recombinant human PD-L1 [6] = biological target: T2, recombinant human PD-L1 (human, UniProt Q9NZQ7 19-238, limits assumed); assay: ELISA on human PD-L1, OD 650 nm
T2 construct: also called PD-L1 protein

[7] = biological target: T3, recombinant cynomolgus monkey PD-L1 (cynomolgus monkey, UniProt G7PSE7 19-238); assay: direct ELISA on plate-coated recombinant cynomolgus monkey PD-L1; anti-human Fc-HRP, TMB, OD 650 nm
T3 construct: also called cynomolgus macaque PD-L1
Method: (§1) To assess specificity of the selected clones, a direct ELISA for human and cynomolgus monkey PD-L1 was performed. ELISA plates were coated with recombinant human or cynomolgus monkey PD-L1. […] Serial dilutions of chimeric anti-PD-L1 antibodies were added, and a secondary HRP-conjugated, anti-human Fc-specific antibody was added. After washing, TMB substrate was added and plates were read at OD 650 nm.

human PD-L1 on cells [8] = biological target: T1, human PD-L1 on cells; assay: flow cytometry on monocyte-derived dendritic cells; PE anti-human Fc, MFI
Method: The chimeric PD-L1 antibodies were further assessed for their ability to bind to human myeloid-derived dendritic cells. CD14 monocytes were isolated from PBMC using directly conjugated magnetic beads (Miltenyi) and cultured for 7 days in the presence of GM-CSF (100 ng/ml) and IL-4 (50 ng/ml) (Peprotech) to generate myeloid dendritic cells (mDC). mDC were added to 96-well plates (100,000 cells/well) and serial dilution of anti-PD-L1 antibodies or IgG1 isotype control antibody was added in duplicates and plates were incubated for 30 min on ice. After washing, a PE-conjugated donkey anti-human Fc specific antibody (Jackson Immunoresearch, 1:200 dilution) was added and plates were further incubated for 15 minutes on ice. After washing, cells were analyzed using a MACS quant flow cytometer.

[9] = biological target: T4, human PD-L1-his (Sino Biologics) (human, UniProt Q9NZQ7 19-238); assay: competition ELISA: human PD-L1-his coated at 1 µg/ml, antibody dilutions, then human PD-1-mouse-Fc at 1 µg/ml, anti-mouse IgG-HRP, OD 650 nm
T4 construct: Bought from Sino Biologics; not shown: his tag
Method: Plates were coated with 100 μl of 1 μg/ml human PD-L1-his (Sino Biologics, Beijing, China) in carbonate-bicarbonate buffer overnight. After washing, plates were blocked with PBS 0.05% Tween-20 for 1 hour, and serial dilutions of anti-PD-L1 human chimeric antibody or IgG1 isotype control antibody was added. […] After washing, goat anti-mouse IgG (H+L)-HRP antibody (Jackson ImmunoResearch West Grove, Pa.) and plates were further incubated for 1 hour. After washing, TMB substrate (SurModics, Eden Prairie, Minn.) was added. The reaction was stopped using stop solution (SurModics) and plates were read at OD=650 nanometer.

human PD-L1 on cells [10] = biological target: T1, human PD-L1 on cells; assay: flow cytometry on monocyte-derived dendritic cells, MFI
human PD-L1 on cells [11] = biological target: T1, human PD-L1 on cells; assay: flow cytometry on human PD-L1 transfected HEK 293 cells; PE anti-human Fc, MFI
Method: Stable human PD-L1 transfected HEK 293 cells (Crown Bio, San Diego, Calif.) were added to 96-well plates (100,000 cells/well) and serial dilution of anti-PD-L1 antibodies or IgG1 isotype control antibody was added in duplicates and plates were incubated for 30 minutes on ice. After washing, a PE-conjugated donkey anti-human Fc specific antibody (Jackson Immunoresearch, West Grove, Pa. 1:200 dilution) was added and plates were further incubated for 15 minutes on ice. After washing, cells were analyzed using a MACS quant flow cytometer.

human PD-L1 on cells [12] = biological target: T1, human PD-L1 on cells; assay: flow cytometry on CD4 T cells activated with anti-CD3; MFI; column head prints only EC50, unit taken from the axis Antibody Concentration (nM)
human PD-L1 on cells [13] = biological target: T1, human PD-L1 on cells; assay: flow cytometry on HEK-PD-L1 cells, saturation fit on a linear axis; column head prints only Kd, unit taken from the axis Ab (nM)
human PD-L1 on cells [14] = biological target: T1, human PD-L1 on cells; assay: flow cytometry on HEK PD-L1 cells, MFI
recombinant human PD-L1 [15] = biological target: T2, recombinant human PD-L1; assay: direct ELISA on plate-coated recombinant human PD-L1; anti-human Fc-HRP, TMB, OD 650 nm
Method: as §1

recombinant human PD-L1 [16] = biological target: T2, recombinant human PD-L1; assay: competition ELISA: PD-L1 coated, serial dilutions of the antibody, then biotinylated Atezolizumab at 1 µg/ml, streptavidin-HRP, OD 650 nm

T1 sequence (Q9NZQ7 19-290): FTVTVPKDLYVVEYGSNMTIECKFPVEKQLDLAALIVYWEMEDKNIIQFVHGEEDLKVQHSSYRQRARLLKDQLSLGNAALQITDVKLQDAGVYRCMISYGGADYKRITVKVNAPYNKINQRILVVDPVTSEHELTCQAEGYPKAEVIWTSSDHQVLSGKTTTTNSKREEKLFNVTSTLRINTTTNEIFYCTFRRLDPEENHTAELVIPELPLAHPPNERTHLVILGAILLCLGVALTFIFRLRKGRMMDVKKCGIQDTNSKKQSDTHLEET
T2 sequence (Q9NZQ7 19-238 limits assumed): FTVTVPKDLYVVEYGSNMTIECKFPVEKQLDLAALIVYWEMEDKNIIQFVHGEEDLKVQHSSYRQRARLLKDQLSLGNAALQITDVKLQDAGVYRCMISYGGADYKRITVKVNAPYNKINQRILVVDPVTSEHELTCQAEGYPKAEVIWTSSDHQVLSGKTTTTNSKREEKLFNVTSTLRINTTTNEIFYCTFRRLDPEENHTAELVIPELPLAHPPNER
T4 sequence (Q9NZQ7 19-238 limits assumed): as above
T3 sequence (G7PSE7 entry or part of it limits assumed): as the sequence (Q9NZQ7 19-238 limits assumed) above, with A33T, A34S, S62N, R68Q, Q82R, F173L, T185A, T192I, H215L counted along it
mouse PD-L1, sequence (Q9EP73 19-239 limits assumed): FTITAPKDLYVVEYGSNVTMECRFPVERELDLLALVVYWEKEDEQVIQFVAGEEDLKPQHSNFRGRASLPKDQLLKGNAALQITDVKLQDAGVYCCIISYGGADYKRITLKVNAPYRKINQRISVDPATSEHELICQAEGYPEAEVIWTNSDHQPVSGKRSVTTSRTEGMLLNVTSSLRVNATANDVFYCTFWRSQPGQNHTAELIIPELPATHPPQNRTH

Binder	EC50 (read off the curve) (human PD-L1 on cells [1]) [pM]	binding result (mouse PD-L1)	Kd (human PD-L1 on cells [2]) [pM]	EC50 (human PD-L1 on cells [3]) [pM]	Kd (human PD-L1 on cells [4]) [pM]	Kd (human PD-L1 on cells [5]) [pM]	EC50 (recombinant human PD-L1 [6]) [µg/mL]	EC50 (read off the curve) [7] [µg/mL]	EC50 (human PD-L1 on cells [8]) [pM]	IC50 (read off the curve) [9] [µg/mL]	EC50 (human PD-L1 on cells [10]) [pM]	EC50 (human PD-L1 on cells [11]) [pM]	EC50 (human PD-L1 on cells [12]) [pM]	Kd (human PD-L1 on cells [13]) [pM]	EC50 (human PD-L1 on cells [14]) [pM]	EC50 (read off the curve) (recombinant human PD-L1 [15]) [µg/mL]	binding result [7]	binding result (recombinant human PD-L1 [16])
B1	~400	no binding	15	19	790	160	0.00713	~0.004	400	~0.02	1660	170	680	300	270	–	–	–
B2	–	–	26	756	420	–	0.0138	–	1100	–	900	580	–	–	–	~0.004	no binding (tested: 1000 ng/ml)	–
B3	–	–	–	–	–	–	–	–	–	–	–	–	–	–	–	–	–	binds
B4	~1000	–	25	1030	500	160	0.0117	–	–	~0.2	1120	–	–	910	320	–	–	–

Source: US20190218296A1 (APEXIGEN, published 2019)
